Data taken from publication doi:10.1101/2022.07.24.501275.

What was measured:
Test in all cases: SPR
[1] = biological target: 16A Fab W34F (mouse | human)
[2] = biological target: 14A Fab G32R (mouse | human)
[3] = biological target: 16A Fab R32G (mouse | human)

Row | KD(peptide)/KD(GalNAc-T) [1] [fold] | Kd [2] [nM] | KD(peptide)/KD(GalNAc-S) [3] [fold] | Substance
1 | 2.8 |  |  | MUC1 glycopeptide RPAPGST(Tn)APPAHG
2 |  | 128 | 1.9 | MUC1 glycopeptide RPAPGS(Tn)TAPPAHG
